B2: cyclin-dependent kinase inhibitor 3 (CDKN3), endogenous in LC319 cells (enzyme)
chain: MKPPSSIQTSEFDSSDEEPIEDEQTPIHISWLSLSRVNCSQFLGLCALPGCKFKDVRRNVQKDTEELKSCGIQDIFVFCTRGELSKYRVPNLLDLYQQCGIITHHHPIADGGTPDIASCCEIMEELTTCLKNYRKTLIHCYGGLGRSCLVAACLLLYLSDTISPEQAIDSLRDLRGSGAIQTIKQYNYLHEFRDKLAAHLSSRDSQSRSVSR
notes: Endogenous protein in extracts of the human lung cancer cell line LC319; also called KAP; KAP1

Experiments:
[1] = biological target: T1, neuronal pentraxin receptor (NPTXR), endogenous on SBC-5 lung cancer cells (human, UniProt O95502 1-500); test: immunocytochemistry of recipient SBC-5 cells incubated 3 hours with conditioned medium of NPTX1-transfected donor cells
T1 construct: Endogenous NPTXR of the human SCLC cell line SBC-5
T1 sequence: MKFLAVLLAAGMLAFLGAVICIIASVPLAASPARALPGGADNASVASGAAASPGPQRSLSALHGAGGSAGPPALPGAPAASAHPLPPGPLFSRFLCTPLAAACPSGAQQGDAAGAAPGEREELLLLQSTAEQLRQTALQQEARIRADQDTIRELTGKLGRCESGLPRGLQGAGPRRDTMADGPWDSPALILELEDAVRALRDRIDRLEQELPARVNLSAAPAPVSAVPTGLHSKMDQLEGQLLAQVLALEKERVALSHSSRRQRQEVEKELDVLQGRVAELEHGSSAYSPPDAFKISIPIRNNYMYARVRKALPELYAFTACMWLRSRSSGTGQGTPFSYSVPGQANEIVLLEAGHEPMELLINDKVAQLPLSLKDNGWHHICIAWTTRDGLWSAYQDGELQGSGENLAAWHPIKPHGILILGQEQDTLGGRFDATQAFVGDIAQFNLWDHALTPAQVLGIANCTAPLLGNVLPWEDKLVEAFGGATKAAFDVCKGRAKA
Description: FIG. 14: Presents internalization of NPTX1 after binding with NPTXR Part A, B, Recipient COS-7 cells (A) or SBC-5 cells (B) were incubated with conditioned medium from NPTX1-transfected (+) donor COS-7 cells or SBC-5 cells, respectively. c-myc-tagged NPTX1 was detected 3 hours after treatment of recipient cells with donor's conditioned medium. Green: NPTX1. Nuclei were visualized by DAPI. (a) Cells were stained for extracellular surface staining with anti-myc antibody for detecting NPTX1. (b) Cells were permialized by Triton X-100 and stained for NPTX1 (myc). (c) 3 hours treatment with PBS. […] 1 or 3 hours after treatment of recipient COS-7 cells with conditioned medium from donor NPTX1-transfected (+) COS-7 cells, internalized NPTX1 was detected by western blotting using anti-myc antibodies.
To determine the mechanism involved in the regulation of NPTX1/NPTXR signaling, the present inventors examined whether NPTX1/NPTXR could be internalized when cells were exposed to secreted NPTX1, through confocal microscopy observation of the subcellular distribution of the NPTX1 and NPTXR. […] The present Mentors detected binding of NPTX1 to the surface of these cells by immunocytochemistry (FIGS. 14A and 14B). […] Then, immunocytochemistry was done under membrane-permeabilizing conditions and we detected internalized exogenous NPTX1 (FIGS. 14A and 14B). […]

COS-7 cells = test: Autocrine assay: COS-7 cells incubated with recombinant NPTX1 protein, MTT; format: cell-based; details: NPTX1 at final concentration of 0.1 nM to 1 nM, compared with control
Excerpt: FIG. 10. Presents the autocrine cellular growth effect of NPTX1. Part A depicts the inhibition of growth of lung cancer cells by siRNA against NPTX1. The upper panels of Part A depict the expression of NPTX1 in response to si-NPTX1s (si-1, -2) or control siRNAs (LUC or SCR) in A549 and SBC-5 cells, analyzed by RT-PCR analysis. The middle panels of Part A present images of colonies examined by colony-formation assays of the A549 and SBC-5 cells transfected with specific siRNAs for NPTX1 or control plasmids. The bottom panels of Part A present the viability of the A549 or SBC-5 cells evaluated by MTT assay in response to si-NPTX1s, -LUC, or -SCR. All assays were performed three times, and in triplicate wells. Part B presents growth-promoting effect of NPTX1 transiently overexpressed in COS-7 cells. Top panel, Transient expression of NPTX1 in COS-7 cells, detected by Western blot analysis. The bottom panels, Viability of the COS-7 cells evaluated by MTT (left) and colony formation assays (right). C, Left panel, Autocrine/paracrine effect of NPTX1 on the growth of mammalian cells. Cell viability counted by MTT assays (COS-7 cells treated with NPTX1 in final concentrations of 0, 0.1, or 1 nM) (right lanes indicated by PBS). […]

[2] = biological target: T2, eukaryotic translation elongation factor 1 delta (EF-1delta), endogenous (human, UniProt P29692 2-281); test: co-immunoprecipitation with anti-CDKN3 monoclonal antibody from LC319 extracts, silver stain, MALDI-TOF-MS
T2 construct: Endogenous 31-kDa protein of LC319 cells
T2 sequence: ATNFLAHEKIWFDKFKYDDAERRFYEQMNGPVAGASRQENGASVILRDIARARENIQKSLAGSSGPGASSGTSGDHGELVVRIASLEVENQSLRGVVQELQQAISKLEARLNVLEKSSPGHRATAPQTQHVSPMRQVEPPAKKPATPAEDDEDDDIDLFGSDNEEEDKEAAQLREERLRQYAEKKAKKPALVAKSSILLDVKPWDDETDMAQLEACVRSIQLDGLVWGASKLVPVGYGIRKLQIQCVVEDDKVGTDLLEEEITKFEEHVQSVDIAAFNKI
Description: Cell extracts from lung-cancer cell line LC319 were pre-cleared by incubation at 4 degree Centigrade for 1 hour with 100 micro L of protein G-agarose beads in a final volume of 2 ml of immunoprecipitation buffer [0.5% NP-40, 50 mM Tris-HCl, 150 mM NaCl] in the presence of protease inhibitor. After centrifugation at 1000 rpm for 5 min at 4 degree Centigrade, the supernatant was incubated at 4 degree Centigrade with anti-CDKN3 monoclonal antibody or normal mouse IgG, for 2 hours. The beads were then collected by centrifugation at 5000 rpm for 2 min and washed six times with 1 ml of each immunoprecipitation buffer. The washed beads were resuspended in 50 micro L of Laemmli sample buffer and boiled for 5 min, and the proteins were separated by 5-10% SDS PAGE gels (BIO RAD). After electrophoresis, the gels were stained with silver. Protein bands specifically found in extracts immunoprecipitated with anti-CDKN3 monoclonal antibody were excised and served for matrix-assisted laser desorption/ionization-time of flight mass spectrometry (MALDI-TOF-MS) analysis (AXIMA-CFR plus, SHIMADZU BIOTECH).

[3] = biological target: B2; test: co-immunoprecipitation with monoclonal anti-Flag antibody from LC319 cells
Excerpt: The biological importance of the association of these two proteins and its potential as a therapeutic target for lung cancer was subsequently investigated. To determine the domain in EF-1delta that is required for interaction with CDKN3, each construct of EF-1delta with FLAG-HA-sequence at its N- and C-terminals were transfected into LC319 cells (EF-1delta72-160, EF-1delta161-281, EF-1delta1-160, EF-1delta72-281, and full-length EF-1delta1-281; FIG. 21B).

B1: myc/His-tagged NPTX1 (pcDNA3.1-NPTX1-myc/His) (ligand)
chain: QDFGPTRFICTSVPVDADMCAASVAAGGAEELRSSVLQLRETVLQQKETILSQKETIRELTAKLGRCESQSTLDPGAGEARAGGGRKQPGSGKNTMGDLSRTPAAETLSQLGQTLQSLKTRLENLEQYSRLNSSSQTNSLKDLLQSKIDELERQVLSRVNTLEEGKGGPRNDTEERVKIETALTSLHQRISELEKGQKDNRPGDKFQLTFPLRTNYMYAKVKKSLPEMYAFTVCMWLKSSATPGVGTPFSYAVPGQANELVLIEWGNNPMEILINDKVAKLPFVINDGKWHHICVTWTTRDGVWEAYQDGTQGGSGENLAPYHPIKPQGVLVLGQEQDTLGGGFDATQAFVGELAHFNIWDRKLTPGEVYNLATCSTKALSGNVIAWAESHIEIYGGATKWTFEACRQIN
notes: also called c-myc-tagged NPTX1; exogenous NPTX1; not shown: myc-His tag of the pcDNA3.1 myc-His vector
[1]
  binding result: binds
COS-7 cells
  COS-7 cell growth by MTT assays: enhancement of the cell growth

## B2
[2]
  binding result: binds

B3: EF-1delta161-281 (FLAG-HA-tagged deletion construct) (other, not shown: small tags and cut ends)
chain: GSDNEEEDKEAAQLREERLRQYAEKKAKKPALVAKSSILLDVKPWDDETDMAQLEACVRSIQLDGLVWGASKLVPVGYGIRKLQIQCVVEDDKVGTDLLEEEITKFEEHVQSVDIAAFNKI
notes: Lacks the N-terminal 160 amino acids of EF-1delta; also called EF-1delta 161-281 construct
[3]
  binding result: no binding

— patent publication US20110152345A1, “EBI3, DLX5, NPTX1 AND CDKN3 FOR TARGET GENES OF LUNG CANCER THERAPY AND DIAGNOSIS” (Oncotherapy Science, Inc., priority 2007, published 2011)
